The subject of series [1] is Saccharomyces cerevisiae. Kind of series: protein stability index of tFT-peptide fusion (C-terminal peptide) (PSI (0-1 scale)); higher = more stable (slower turnover). As to the method:
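MPS profiling in S. cerevisiae of the tFT-X12 degron library: putative degron peptides plus stable controls, 12 aa, fused to the C-terminus of a sfGFP-mCherry timer. Cells are FACS-sorted into 8 mCherry/sfGFP bins and deep-sequenced. PSI runs from 0 (unstable) to 1 (stable). Backgrounds are wild type, das1Δ and doa10Δ at 30 °C, and wild type, das1Δ, cdc34-1 and cdc53-1 at 37 °C; 2-3 technical replicates each.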

Series [2] has as its system Saccharomyces cerevisiae. Described as above. The settings on record: genetic background: wild type; temperature: 30 C.
[3] abbreviates: genetic background: cdc34-1, temperature: 37 C.
[4] abbreviates: genetic background: cdc53-1, temperature: 37 C.
[5] abbreviates: genetic background: das1 deletion, temperature: 30 C.
[6] abbreviates: genetic background: das1 deletion, temperature: 37 C.
[7] abbreviates: genetic background: doa10 deletion, temperature: 30 C.
Where [8] appears, read: genetic background: wild type, temperature: 30 C.
Where [9] appears, read: genetic background: wild type, temperature: 37 C.

± gives the standard deviation of the averaged measurements.
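Further: PSI is a weighted mean of sequencing reads over stability bins, variants kept only with over 10 reads, mCherry proximal and sfGFP distal, peptide attached via GGGS linker.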

CFGVVVLGLSLD: the protein stability index in series [1] (setting [3]) amounted to 0.442 ± 0.0052; in series [1] (setting [4]) it was 0.503 ± 0.031; in series [1] (setting [5]), 0.352 ± 0.039; in series [1] (setting [6]), 0.564 ± 0.015; in series [1] (setting [7]), 0.319 ± 0.0043; in series [1] (setting [8]), 0.354 ± 0.027. Besides, the results for the protein stability index in series [1] (setting [9]) and in series [2] were 0.531 ± 0.021 and 0.491 ± 0.024, respectively.

Regarding CFLPFFIIFIFV, the protein stability index stood at 0.214 ± 0.006 in series [1] (setting [3]); 0.177 ± 0.019 in series [1] (setting [4]); 0.209 ± 0.037 in series [1] (setting [5]); 0.32781 ± 3.9e-05 in series [1] (setting [6]); 0.271 ± 0.0063 in series [1] (setting [7]); 0.197 ± 0.031 in series [1] (setting [8]). Further, the protein stability index in series [1] (setting [9]) came out at 0.301 ± 0.015; in series [2], 0.29 ± 0.0067.

Regarding CFVFIGVGVLLG, the protein stability index in series [1] (setting [3]) was determined as 0.205 ± 0.0083; in series [1] (setting [4]), 0.387 ± 0.025; in series [1] (setting [5]), 0.29 ± 0.039; in series [1] (setting [6]) it was 0.4436 ± 0.00094; in series [1] (setting [7]) it was 0.224 ± 0.0069; in series [1] (setting [8]), 0.234 ± 0.021. For the same sequence, the results for the protein stability index in series [1] (setting [9]) and in series [2] were 0.382 ± 0.014 and 0.376 ± 0.037, respectively.

As for CIEIDHVIVAIC, the protein stability index in series [1] (setting [3]) turned out to be 0.464 ± 0.019; in series [1] (setting [4]), 0.527 ± 0.062; in series [1] (setting [5]), 0.348 ± 0.035; in series [1] (setting [6]) it was 0.563 ± 0.03; in series [1] (setting [7]) it was 0.265 ± 0.0061; in series [1] (setting [8]), 0.334 ± 0.015. The protein stability index was determined as 0.492 ± 0.018 in series [1] (setting [9]) and 0.446 ± 0.021 in series [2].

In the case of CKFLYMALLFFW, the protein stability index in series [1] (setting [3]) was 0.278 ± 0.0085; in series [1] (setting [4]), 0.364 ± 0.0087; in series [1] (setting [5]), 0.263 ± 0.032; in series [1] (setting [6]) it was 0.423 ± 0.025; in series [1] (setting [7]), 0.313 ± 0.02; in series [1] (setting [8]), 0.288 ± 0.025. Further, the protein stability index in series [1] (setting [9]) is 0.392 ± 0.00069; in series [2], 0.299 ± 0.061.

For the sequence CLFLVFCFCVCS, the protein stability index in series [1] (setting [3]) was 0.59488 ± 0.00049; in series [1] (setting [4]), 0.62042 ± 0.00025; in series [1] (setting [5]), 0.547 ± 0.031; in series [1] (setting [6]), 0.596 ± 0.077; in series [1] (setting [7]), 0.534 ± 0.018; in series [1] (setting [8]), 0.512 ± 0.02. Besides, the figures for the protein stability index in series [1] (setting [9]) and in series [2] were 0.531 ± 0.032 and 0.498 ± 0.048, respectively.

As for CLGFWVCCYCLV, the protein stability index in series [1] (setting [3]) amounted to 0.537 ± 0.037; in series [1] (setting [4]) it was 0.589 ± 0.044; in series [1] (setting [5]) it was 0.474 ± 0.006; in series [1] (setting [6]), 0.592 ± 0.0093; in series [1] (setting [7]), 0.246 ± 0.0084; in series [1] (setting [8]) it was 0.281 ± 0.035. In addition, the protein stability index worked out at 0.48 ± 0.017 in series [1] (setting [9]) and 0.396 ± 0.029 in series [2].

Take CLHWFMVLFRVL: the protein stability index in series [1] (setting [3]) worked out at 0.139 ± 0.051; in series [1] (setting [4]), 0.12 ± 0.018; in series [1] (setting [5]), 0.296 ± 0.043; in series [1] (setting [6]) it was 0.426 ± 0.0053; in series [1] (setting [7]), 0.212 ± 0.013; in series [1] (setting [8]) it was 0.122 ± 0.037. The results for the protein stability index in series [1] (setting [9]) and in series [2] were 0.203 ± 0.015 and 0.119 ± 0.022, respectively.

Turning to CLLLVISSLCSG, the protein stability index in series [1] (setting [3]) came to 0.416 ± 0.047; in series [1] (setting [4]) it was 0.462 ± 0.073; in series [1] (setting [5]) it was 0.336 ± 0.014; in series [1] (setting [6]), 0.529 ± 0.023; in series [1] (setting [7]), 0.261 ± 0.0032; in series [1] (setting [8]), 0.301 ± 0.0098. In addition, the results for the protein stability index in series [1] (setting [9]) and in series [2] were 0.4964 ± 0.0038 and 0.403 ± 0.011, respectively.

For the sequence DNTVWLRLVTSC, the protein stability index was determined as 0.32 ± 0.052 in series [1] (setting [3]); 0.506 ± 0.011 in series [1] (setting [4]); 0.402 ± 0.017 in series [1] (setting [5]); 0.565 ± 0.013 in series [1] (setting [6]); 0.0752 ± 0.013 in series [1] (setting [7]); 0.0895 ± 0.015 in series [1] (setting [8]). Moreover, in series [1] (setting [9]), the protein stability index came to 0.0768 ± 0.016.

As for FCLRQPMLRFFI, the protein stability index in series [1] (setting [3]) worked out at 0.586 ± 0.027; in series [1] (setting [4]) it was 0.595 ± 0.012; in series [1] (setting [5]) it was 0.562 ± 0.037; in series [1] (setting [6]), 0.639 ± 0.0057; in series [1] (setting [7]), 0.479 ± 0.03; in series [1] (setting [8]), 0.442 ± 0.028. The same sequence displayed a protein stability index in series [1] (setting [9]) of 0.54348 ± 9.7e-05.

Take FLFVSVFHPALL: the protein stability index in series [1] (setting [3]) stood at 0.6421 ± 0.0042; in series [1] (setting [4]) it was 0.70858 ± 0.0003; in series [1] (setting [5]) it was 0.593 ± 0.059; in series [1] (setting [6]), 0.6911 ± 0.0062; in series [1] (setting [7]), 0.3787 ± 0.0024; in series [1] (setting [8]), 0.409 ± 0.019. In addition, in series [1] (setting [9]), the protein stability index came out at 0.601 ± 0.013.

Take GAVGGWGWVSFV: the protein stability index is 0.683 ± 0.049 in series [1] (setting [3]); 0.7583 ± 0.0075 in series [1] (setting [4]); 0.603 ± 0.034 in series [1] (setting [5]); 0.771 ± 0.01 in series [1] (setting [6]); 0.3855 ± 0.0037 in series [1] (setting [7]); 0.397 ± 0.0083 in series [1] (setting [8]). In series [1] (setting [9]), this sequence came in with a protein stability index of 0.595 ± 0.092.

Consider GGCGFVWWRLLG, for which the protein stability index came to 0.544 ± 0.023 in series [1] (setting [3]); 0.6932 ± 0.0055 in series [1] (setting [4]); 0.622 ± 0.033 in series [1] (setting [5]); 0.752 ± 0.0098 in series [1] (setting [6]); 0.125 ± 0.0054 in series [1] (setting [7]); 0.144 ± 0.033 in series [1] (setting [8]). Besides, in series [1] (setting [9]), the protein stability index stood at 0.199 ± 0.022.
